Source: patent US20210253718A1 (MODMAB THERAPEUTICS, published 2021)

T1: FZD3 cysteine-rich domain (CRD), MYC-tagged and GPI-anchored on CHO cells (human, UniProt Q9NPG1 24-150, GPI anchor)
T1 construct: domain: cysteine-rich domain (CRD); also called FZD3 CRD; CHO-myc-FZDGPI; not shown: MYC tag and GPI anchor signal
T1 sequence (looked up): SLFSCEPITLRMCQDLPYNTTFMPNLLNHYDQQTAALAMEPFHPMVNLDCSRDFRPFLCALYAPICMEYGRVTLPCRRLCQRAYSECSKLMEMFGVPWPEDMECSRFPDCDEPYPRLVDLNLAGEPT

T2: FZD10 cysteine-rich domain (CRD), MYC-tagged and GPI-anchored on CHO cells (human, UniProt Q9ULW2 30-156, GPI anchor)
T2 construct: also called FZD10 CRD; CHO-myc-FZDGPI; not shown: MYC tag and GPI anchor signal
T2 sequence: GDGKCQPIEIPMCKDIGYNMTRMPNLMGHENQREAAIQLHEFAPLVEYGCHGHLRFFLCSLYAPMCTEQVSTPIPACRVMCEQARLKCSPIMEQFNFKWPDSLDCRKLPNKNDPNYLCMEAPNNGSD

T3: FZD4 cysteine-rich domain (CRD), MYC-tagged and GPI-anchored on CHO cells (human, UniProt Q9ULV1 42-167, GPI anchor)
T3 construct: also called FZD4 CRD; CHO-myc-FZDGPI; not shown: MYC tag and GPI anchor signal
T3 sequence: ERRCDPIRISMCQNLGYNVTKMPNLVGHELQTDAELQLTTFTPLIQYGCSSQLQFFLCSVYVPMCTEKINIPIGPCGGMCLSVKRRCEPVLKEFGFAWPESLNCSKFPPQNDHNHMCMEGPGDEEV

T4: FZD9 cysteine-rich domain (CRD), MYC-tagged and GPI-anchored on CHO cells (human, UniProt O00144 35-161, GPI anchor)
T4 construct: also called FZD9 CRD; CHO-myc-FZDGPI; not shown: MYC tag and GPI anchor signal
T4 sequence: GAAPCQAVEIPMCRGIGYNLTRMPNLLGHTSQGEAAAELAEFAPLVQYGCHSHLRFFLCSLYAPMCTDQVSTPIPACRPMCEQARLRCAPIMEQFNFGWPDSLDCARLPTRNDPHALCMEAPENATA

T5: FZD6 cysteine-rich domain (CRD), MYC-tagged and GPI-anchored on CHO cells (human, UniProt O60353 20-146, GPI anchor)
T5 construct: also called FZD6 CRD; CHO-myc-FZDGPI; not shown: MYC tag and GPI anchor signal
T5 sequence: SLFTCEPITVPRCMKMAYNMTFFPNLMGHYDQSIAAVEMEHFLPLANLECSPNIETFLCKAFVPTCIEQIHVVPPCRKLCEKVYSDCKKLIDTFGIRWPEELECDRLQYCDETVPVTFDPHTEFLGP

T6: FZD5 cysteine-rich domain (CRD), MYC-tagged and GPI-anchored on CHO cells (human, UniProt Q13467 29-156, GPI anchor)
T6 construct: also called FZD5 CRD; CHO-myc-FZDGPI; not shown: MYC tag and GPI anchor signal
T6 sequence: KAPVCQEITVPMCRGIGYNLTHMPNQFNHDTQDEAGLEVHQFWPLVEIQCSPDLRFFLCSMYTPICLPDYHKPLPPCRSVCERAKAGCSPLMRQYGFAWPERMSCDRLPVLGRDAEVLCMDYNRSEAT

T7: FZD8 cysteine-rich domain (CRD), MYC-tagged and GPI-anchored on CHO cells (human, UniProt Q498S8 31-155 (rat entry), GPI anchor)
T7 construct: also called FZD8 CRD; CHO-myc-FZDGPI; not shown: MYC tag and GPI anchor signal
T7 sequence: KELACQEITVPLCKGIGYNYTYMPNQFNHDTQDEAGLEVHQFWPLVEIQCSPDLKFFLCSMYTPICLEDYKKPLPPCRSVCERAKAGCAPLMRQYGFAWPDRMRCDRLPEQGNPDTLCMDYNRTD


What was measured:
[1] = molecular target: T1, FZD3 cysteine-rich domain (CRD), …; assay: immunofluorescence, CHO-CRD cells
[2] = molecular target: T2, FZD10 cysteine-rich domain (CRD), …; assay: immunofluorescence, CHO-CRD cells
[3] = molecular target: T3, FZD4 cysteine-rich domain (CRD), …; assay: immunofluorescence, CHO-CRD cells
[4] = molecular target: T4, FZD9 cysteine-rich domain (CRD), …; assay: immunofluorescence, CHO-CRD cells
[5] = molecular target: T5, FZD6 cysteine-rich domain (CRD), …; assay: immunofluorescence, CHO-CRD cells
[6] = molecular target: T1, FZD3 cysteine-rich domain (CRD), …; assay: flow cytometry, CHO-CRD cells;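 further: flow cytometry of Fab binding to CHO cells overexpressing a Frizzled CRD, with binding defined as median fluorescence over twice that of CHO cells lacking any Frizzled CRD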
Protocol: (§1) Binding was measured via flow cytometry analysis of CHO cells overexpressing CRD of FZD1, FZD2, FZD3, FZD4, FZD5, FZD6, FZD7, FZD8, FZD9 or FZD10. Median fluorescence values are shown.

[7] = molecular target: T2, FZD10 cysteine-rich domain (CRD), …; assay: flow cytometry, CHO-CRD cells;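 further: flow cytometry of Fab binding to CHO cells overexpressing a Frizzled CRD, with binding defined as median fluorescence over twice that of CHO cells lacking any Frizzled CRD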
Protocol: as §1

[8] = molecular target: FZD7 cysteine-rich domain (CRD), MYC-tagged and GPI-anchored on CHO cells (human, UniProt O75084 45-169); assay: flow cytometry, CHO-CRD cells;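 further: flow cytometry of Fab binding to CHO cells overexpressing a Frizzled CRD, with binding defined as median fluorescence over twice that of CHO cells lacking any Frizzled CRD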
Protocol: as §1

[9] = molecular target: T3, FZD4 cysteine-rich domain (CRD), …; assay: flow cytometry, CHO-CRD cells;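 further: flow cytometry of Fab binding to CHO cells overexpressing a Frizzled CRD, with binding defined as median fluorescence over twice that of CHO cells lacking any Frizzled CRD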
Protocol: as §1

[10] = molecular target: T4, FZD9 cysteine-rich domain (CRD), …; assay: flow cytometry, CHO-CRD cells
Protocol: as §1

[11] = molecular target: T6, FZD5 cysteine-rich domain (CRD), …; assay: flow cytometry, CHO-CRD cells
Protocol: as §1

[12] = molecular target: T7, FZD8 cysteine-rich domain (CRD), …; assay: flow cytometry, CHO-CRD cells
Protocol: as §1

[13] = molecular target: FZD1 cysteine-rich domain (CRD), MYC-tagged and GPI-anchored on CHO cells (human); assay: flow cytometry, CHO-CRD cells
Protocol: as §1

[14] = molecular target: T5, FZD6 cysteine-rich domain (CRD), …; assay: flow cytometry, CHO-CRD cells
Protocol: as §1

[15] = molecular target: FZD2 cysteine-rich domain (CRD), MYC-tagged and GPI-anchored on CHO cells (human, UniProt Q14332 35-161); assay: flow cytometry, CHO-CRD cells
Protocol: as §1

Row | Binder | binding result [1] | binding result [2] | binding result [3] | binding result [4] | binding result [5] | median fluorescence [6] | median fluorescence [7] | median fluorescence [8] | median fluorescence [9] | median fluorescence [10] | median fluorescence [11] | median fluorescence [12] | median fluorescence [13] | median fluorescence [14] | median fluorescence [15]
1 | Fab-2898 (Fab, V domains shown, Fab; also called Fv-2898) VH: EVQLVESGGGLVQPGGSLRLSCAASGFNIYSYSMHWVRQAPGKGLEWVASIYSSSGSTSYADSVKGRFTISADTSKNTAYLQMNSLRAEDTAVYYCARAVWGLDYWGQGTLVTVSS VL: DIQMTQSPSSLSASVGDRVTITCRASQSVSSAVAWYQQKPGKAPKLLIYSASSLYSGVPSRFSGSRSGTDFTLTISSLQPEDFATYYCQQWWGYYSLITFGQGTKVEIK | no binding | no binding | no binding | no binding | no binding | 5.05 | 4.26 | 36.9 | 6.26 | 4.57 | 32 | 12.7 | 14.9 | 4.49 | 13.5
2 | Fab-2916 (Fab, V domains shown, Fab) VH: EVQLVESGGGLVQPGGSLRLSCAASGFNISYSSIHWVRQAPGKGLEWVASIYPSYSYTYYADSVKGRFTISADTSKNTAYLQMNSLRAEDTAVYYCARYGYYGMDYWGQGTLVTVSS VL: DIQMTQSPSSLSASVGDRVTITCRASQSVSSAVAWYQQKPGKAPKLLIYSASSLYSGVPSRFSGSRSGTDFTLTISSLQPEDFATYYCQQWYHYPYLITFGQGTKVEIK | no binding | no binding | no binding | no binding | no binding | 4.53 | 2.94 | 36.2 | 6.1 | 3.52 | 24.1 | 7.37 | 34.3 | 3.49 | 18.9
3 | Fab-2913 (Fab, V domains shown, Fab; also called Fv-2913) VH: EVQLVESGGGLVQPGGSLRLSCAASGFNISYSSIHWVRQAPGKGLEWVASIYPYSSSTSYADSVKGRFTISADTSKNTAYLQMNSLRAEDTAVYYCARYGYYGLDYWGQGTLVTVSS VL: DIQMTQSPSSLSASVGDRVTITCRASQSVSSAVAWYQQKPGKAPKLLIYSASSLYSGVPSRFSGSRSGTDFTLTISSLQPEDFATYYCQQWGVSHYLFTFGQGTKVEIK | no binding | no binding | no binding | no binding | no binding | 4.61 | 3.75 | 34.9 | 5.57 | 3.79 | 27.1 |  | 17.5 | 3.82 | 14.1

Further lines, results first:

Row | binding result [1] | binding result [2] | binding result [3] | binding result [4] | binding result [5] | median fluorescence [6] | median fluorescence [7] | median fluorescence [8] | median fluorescence [9] | median fluorescence [10] | median fluorescence [11] | median fluorescence [12] | median fluorescence [13] | median fluorescence [14] | median fluorescence [15] | Binder
4 | no binding | no binding | no binding | no binding | no binding | 4.1 | 3.85 | 47 | 5.09 | 3.25 | 32.8 | 10.9 | 17.1 | 3.62 |  | Fab-2901 (Fab, V domains shown, Fab; also called Fv-2901) VH: EVQLVESGGGLVQPGGSLRLSCAASGFNISYSYMHWVRQAPGKGLEWVASIYSYSSYTYYADSVKGRFTISADTSKNTAYLQMNSLRAEDTAVYYCARSWYYWSPSSGMDYWGQGTLVTVSS VL: DIQMTQSPSSLSASVGDRVTITCRASQSVSSAVAWYQQKPGKAPKLLIYSASSLYSGVPSRFSGSRSGTDFTLTISSLQPEDFATYYCQQGGFLITFGQGTKVEIK
5 | no binding | no binding | no binding | no binding | no binding | 4.61 | 3.72 | 18.4 | 5.52 | 3.82 | 31.9 | 8.9 | 40.3 | 3.59 | 18.9 | Fab-2914 (Fab, V domains shown, Fab; also called Fv-2914) VH: EVQLVESGGGLVQPGGSLRLSCAASGFNIYYSYMHWVRQAPGKGLEWVASIYPSSSSTSYADSVKGRFTISADTSKNTAYLQMNSLRAEDTAVYYCARGAMDYWGQGTLVTVSS VL: DIQMTQSPSSLSASVGDRVTITCRASQSVSSAVAWYQQKPGKAPKLLIYSASSLYSGVPSRFSGSRSGTDFTLTISSLQPEDFATYYCQQWYYGSLITFGQGTKVEIK
6 | no binding | no binding | no binding | no binding | no binding | 5.05 | 3.92 | 40.7 | 5.99 | 3.92 |  |  | 36.9 | 3.37 | 22.1 | Fab-2915 (Fab, V domains shown, Fab; also called Fv-2915) VH: EVQLVESGGGLVQPGGSLRLSCAASGFNIYYYSMHWVRQAPGKGLEWVASIYSSYGYTSYADSVKGRFTISADTSKNTAYLQMNSLRAEDTAVYYCARGYHYYPYYSGLDYWGQGTLVTVSS VL: DIQMTQSPSSLSASVGDRVTITCRASQSVSSAVAWYQQKPGKAPKLLIYSASSLYSGVPSRFSGSRSGTDFTLTISSLQPEDFATYYCQQAYYHSLITFGQGTKVEIK
